Target: MERS-CoV S trimer (stabilized soluble S2P) (MERS-CoV, strain not named; stand-in …, UniProt K9N5Q8, stabilised)
Experiment: ELISA
Settings: both partners purified

| Binder | binding result |
| --- | --- |
| PW5-5 (antibody, V domains shown, also called PW5-5 IgG; IgG PW5-5) VH: QVQLVQSGAEVKKPGASVKVSCKTSGYTFTDHYMYWVRQAPGQGLEWMGVINPDAGSVTYAQKFQGRVTMTSDTSTSTVYMELSSLRSEDTAVYYCARDLFFIPAANSFDYWGQGTLVTVSS VL: EIVLTQSPATLSLSPGERATLSCRASQSVSSYLAWYQQKPGQAPRLLIYDATNRATGIPARFSGSGSGTDFTLTISSLEPEDFAVYYCQHRSNWPRMFTFGQGTKLEIK | binds |
| PW5-535 (antibody, V domains shown) VH: EVRLVESGGGLVQPGGSLRLSCAASGFTFRNYDIHWVRQTTGKGLEWVSAVGTSGDTYYLDSVKGRFTISREDAKKSVYLQMNSLRAGDTAMYYCVRGDASPDNIYYYMDVWGTGTRVIVSS VL: DIQVTQSPSPLSASVGDRVTITCRASQTIGKYLNWYHQIPGKAPKLLISAASTLHSGVPSRFSGRGSGTDFTLTISSLQPEDFGTYYCQQSYSSPPWTFGQGTKVEIK | binds |
